Assay results from patent publication US20230321260A1.

Molecular target: MBP-RumTrunkD9NTag
Test: isopeptide coupling to RumTrunkD9NTag-MBP, 5 uM each, 37 C, SDS gel (time given as 50 minutes and as 3 h)

SpyCatcher-VLP
Percentage reconstitution: 11.9%
